Results reported in paper PMC4424350, “Unraveling the Specific Regulation of the Central Pathway for Anaerobic Degradation of 3-Methylbenzoate” (The Journal of Biological Chemistry, 2015).

Experiments:
[1] = test system: MbdR-His6 (Azoarcus sp. CIB); test: EMSA; settings: relative Kd; EMSA: 20 mM Tris-HCl pH 7.5, 10% glycerol, 50 mM KCl, 0.05 nM probe, 250 ug/ml BSA, 50 ug/ml salmon sperm DNA, 20 min 30 C; footprinting: same buffer, 2 nM …
[2] = test system: T1, MbdR-His6 (Azoarcus sp. CIB), ORF:e0c75ca7; test: DNase I footprinting; settings: EMSA: 20 mM Tris-HCl pH 7.5, 10% glycerol, 50 mM KCl, 0.05 nM probe, 250 ug/ml BSA, 50 ug/ml salmon sperm DNA, 20 min 30 C; footprinting: same buffer, 2 nM …
T1 sequence: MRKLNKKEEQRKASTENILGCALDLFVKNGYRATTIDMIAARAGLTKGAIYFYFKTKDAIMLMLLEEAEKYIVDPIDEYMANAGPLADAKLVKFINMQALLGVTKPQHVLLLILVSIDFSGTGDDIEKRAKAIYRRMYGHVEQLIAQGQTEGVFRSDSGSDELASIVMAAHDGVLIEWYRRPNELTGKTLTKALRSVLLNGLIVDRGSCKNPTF

[3] = test system: T1, MbdR-His6 (Azoarcus sp. CIB), ORF:e0c75ca7; test: EMSA; settings: EMSA: 20 mM Tris-HCl pH 7.5, 10% glycerol, 50 mM KCl, 0.05 nM probe, 250 ug/ml BSA, 50 ug/ml salmon sperm DNA, 20 min 30 C; footprinting: same buffer, 2 nM …
[4] = biological target: MbdR-His6 protein (Azoarcus sp. CIB); test: AUC; sedimentation velocity (48,000 rpm, 20 °C) and sedimentation equilibrium (5000 to 15,000 rpm) of MbdR-His6 at 11 to 46 μM in 50 mM NaH2PO4, 300 mM KCl, 20 mM imidazole, pH 8; data not shown

With PO probe (271 bp) the Kd [1] was 1.71 nM.
“ACTGAGGCCCCGCCCAAGTTTTCATTATCTCTAGTACCGGCAAAGAAGGGCCAAACAGATCTATTGCATACTATCCGGTTAGTACGTCTTTTGACCAATTGATCTACACGAGGGGAAACCATGTTCGAGAATTTCAACCATAGTGCTCTGCGTCTTGGAGCGCCAGGCGCTTTAGCGCAGCGTTTGCTGCCGAAGCATCAGGGTCACTATGTTGATGCGCATTGAGGGAATT (double strand) [PA probe (225 bp)]” was tested, and the binding [2] was “binds” and the binding [3] was “binds”.
For MbdR-His6 protein (natural protein), the stoichiometry N [4] was 2.
For PB1 probe (251 bp), the Kd [1] was 3.72 nM.
“AATTCCCTGCGCGCGGCACTATGTCGGGGGAAATTCAGTCATTGCGGAAAACGGCGTTTCCGCGAGCTCGCCAACAAAAGGTCTGACAGCCCCGGTCCCCACATGCGGCTACCATATACCGGCTGGCTGGTATGTGTCAACGACTGATACGGAAGACCTCGAAATCGGAGGGAGGAAAATGGGAAAAGGACCTTTGAGAGCATGGACGGCGCATGGCGAGGAGATGGTATTACGGTAAGTGCTCCACGAGT (double strand) [PB1 probe (251 bp)]” was tested, and the binding [2] was “binds” and the Kd [3] was 3.72 nM.
